Measured values taken from the DeepSol protein solubility set.

Experiment: soluble on expression in E. coli; label from the status in PepcDB or PDB records

Row | Sequence | soluble on expression in E. coli
1 | GMKTSVKFETIFPLTTAPLIQCITNEITCESMANALLYIDAKPIMADDPREFPQMFQQTSALVLNLGHLSQEREQSLLAASDYARQVNKLTVVDLVGYGASDIRNEVGEKLVHNQPTVVKGNLSEMRTFCQLVSHGRGVDGSPLDQSEEAIEELIQALRQQTQKFPQTVFLATGIQDVLVSQEQVIVLQNGVPELDCFTGTGDLVGALVAALLGEGNAPMTAAVAAVSYFNLCGEKAKTKSQGLADFRQNTLNQLSLLMKEKDWFEAVKGRVL | soluble
2 | MINANRPIINLDLDLLRTFVAVADLNTFAAAAAAVCRTQSAVSQQMQRLEQLVGKELFARHGRNKLLTEHGIQLLGYARKILRFNDEACSSLMFSNLQGVLTIGASDESADTILPFLLSRISSVYPKLALDVRVKRNAYMVDMVKSQEVDLVVTTNQPHSLDCLNLRTSPTHWYCAAEYVLQRGEPVPLVLLDDPSPFRDMVLETLNAAGIPWRLAYVASTLPAVRAAVKAGLGVTARPVEMMSPDLRVLGAADGLPPLPDTEYLLCRDPNSQNELAMVIFHAMESYQNPWHYNQFSAEGGDDPLMVEGGFE | not soluble
3 | MIEIEINNAQEITSALERLAQATAHRAPLMRSIAGTMESAVAQNFEVGGRPAWKKLKIRQGTPLVDTENLMASITSEYNNNEAIVGTNEPYAAIHQFGGKAGRGRKVAIPARPFLILTPQDEADILEDIQDYFQLLIK | not soluble
4 | MGSDKIHHHHHHMVVSIGVFDGVHIGHQKVLRTMKEIAFFRKDDSLIYTISYPPEYFLPDFPGLLMTVESRVEMLSRYARTVVLDFFRIKDLTPEGFVERYLSGVSAVVVGRDFRFGKNASGNASFLRKKGVEVYEIEDVVVQGKRVSSSLIRNLVQEGRVEEIPAYLGRYFEIEGIVHKDREFGRKLGFPTANIDRGNEKLVDLKRGVYLVRVHLPDGKKKFGVMNVGFRPTVGDARNVKYEVYILDFEGDLYGQRLKLEVLKFMRDEKKFDSIEELKAAIDQDVKSARNMIDDIINSKFEKEG | not soluble
5 | MSETIFGKILTGEIPSFKVYEDDYVYAFLDISQVTKGHTLLIPKKASANIFETDEETMKHIGAALPKVANAIKRAFNPDGLNIIQNNGEFADQSVFHIHFHLIPRYENDIDGFGYKWETHEDILDNDAKQQIAEQIQAQF | not soluble
6 | MEARAIVIIPDTLKVGFIIGGRRGQGLMSIKTPQNTWSQPVFVKLTGGSIGLQAGVQSSDVVLVFRNDRNLDNIVNGKFTLGADASVAAGPVGRNALAATDSELKAEIYSWSTARGLFAGIALDGAALQIDDSANLDVYGKGTTPRMIFEGRTAEPPSSDVIAFRDRLEEVTYTARNNLEHHHHHH | not soluble
7 | MGSDKIHHHHHHMSKPAYLVEADGVNITKQIADRLLSLTVVDEAEQLSDRVEIVLDDRDKLLEIPKSGTWLKVYLGYAEGGKLPVYMGTYAVDDLTLSNGPRSMVVRATALETAPAMKDSRTQSWHDTTLGEIARTIASRSGLELRIVGDVGSIPIKHEDQTAESDIAFLTRLARRLKITAKPIDKALWITRRASDIPATPGVELAQRIVKGDEVSDWRATIKNRGAYSRVKARYFDQDEKKEKLLTVGPEDGNLQTFEEKQLYKTRDEAQRAADSRLQSLQSGEVTIDFSMEGDPEFTAEGQVTLQDFRALVDGTWYIRNVTHKFDGNGYRTTVTCGTKGEANNDWSAGRGENDKRSASEKGSLLCKTAQQLRGFSTQGGPDGGRNACVWAVNRVFQKAGLTTPWGGSNYVPDAEAALRRSGAQQVSGPEPGAIAIFTDGGNPPQAHIGIVTCDGGRVISNSSSRPTRTRLASPSEYQGFYSGPIRYYRLK | not soluble
8 | MGSDKIHHHHHHMRIAIVHYWLVGMRGGEKVIEALCRMYPQADIFTHVVAPERLSSMLAARHIRTSFIQRLPGSVRHYQKYLPLMPLALEQFDLRDYDLVISSESGPAKGVLTRADTAHVCYCHSPMRYLWDFQQDYLDNASPLMRPFMRIFFHYLRQWDVASSQRVDRFVANSRNVARRITKHWRREATVVHPPVECDLFTQAPDVADLPDDEVADIVRQGGYYLCLGQLVGYKRVDIAIEACRKAGRRLVVVGDGEQRAMLERNAPEGVTFLGWRTQDEIRALYAGCRALLFPGEEDFGIVPVECMASGRPVIAYGKGGALETVLDGETGVLFHEQTATACHDAIMRHERMERDFVPDSLRRHARTFDTSVFERKFRREVEAALHAVRG | not soluble
9 | RDLLEQSLPDDIEEEIEKIICSESMVKGVRRIRTRNIGNYYAVEADILMDGGLSVALSHAATQRVEKLLRGRYGQPTHIVIHVEPFS | not soluble
10 | MGSDKIHHHHHHMYKEYSPCSVLAPFIYHFWEYKGETRNGLKFNIPPHGRSDFVFIVGNAADCIRNSLIMKPYHSYFFGPMNTFTELVAHTNFIYIIGVRFRPCGLFRFIDIPLNELTNQGIDSHEFPVLFSQSFIYQLCESNQNPIDAIEHELVRQVYKNNTDTEKQISYAVSLISRQKGIVSIKELATEACLGLRQFERKFKFYTGYSPKEYSRIVKFWNAIHLLKSNTSFDNFLSVAIQAGYYDTPHLYREVKRLSGNTPNAFLSLSTNEKVEVLHIEL | not soluble
11 | SDIELIHCGADLVERMMNDIRQAASSVHMMFFIMKNDEVSHNMYTLLKTKAQAGVSVYLLLDWAGCRAIKKTALQTMKNAGVHVHVMNRPRFPFFFFHMQKRNHRKITVIDGKIGYIGGFNIAEEYLGKKAKFGNWEDYHLRMIGEGVHDLQTLFASDLKRNTGIELGSDVWPKLQQGTISHKIYATDGYSLENIYLANIAQAKNRLTVCTPYYIPSKPLQEALINARKNGVSVRIIVPMKSDHPLVREAAFTYYSELLDAGCLIYRYYQGFYHVKALIIDDHLSIIGTANFDKRSLFLNEEVNVEIDDEAFTSEVYATIEEDMKKSELLTMEDFSKRTFRQRPAEWLGR | not soluble
12 | MTTALYLEDAYKTSCETEVIKVEGNKVFVKETVFYPTGGGQECDTGVIVQDGSVFEVEKVKKEQGEIVHYIKDEAQVKLGPVKLEINWERRHNLMRHHSLLHLIGAVVYEKYGALCTGNQIYPDKARIDFNELQELSSVEVEEIVEEVNKLIKQNKEISTRYMSREEAENAVGMIKTAINLLPTTIQEIRIVTIENLDEQACGGTHVKNTSEIGTLVIDKVKSKGKQNRRFEVRAI | not soluble
13 | MIYIVGIGPGSRDYVTEKAFDTVETSDFVLGSKRSLEIFEINGERVELTVNLKNELYEFLKNYKNSDSKKKVSILSTGDPCFSGLLKTIFSFDFIEQDDFEVVPGI | not soluble
14 | MGSDKIHHHHHHMGILVVGSVAFDSVETPFGRVENVLGGSATYFSTSASFFTDVSLVAVVGEDFPQEHVEFLNSRNIDLRGLAREGGKTFHWKGKYGYDLNEAQTLETHLNVFESFRPQIPAAYRDAEFLFLANIDPELQMEVLSQVEKPRVIACDTMNFWISSKPEALKAVIAKVDIFIINEGEARQFTQEANLTKAARKILAMGVKTLVIKRGEYGVLMFTDHSVFAAPAFPLEDVFDPTGAGDTFAGGFMGYLANTGDTSETGIRQAIIFGSVMASFNVEDFSLNRLKRLEYREIEDRYRSFKALTHFEGLAGG | not soluble
15 | MSIIFAKLLLIILSYTHMKEKARNVYMVAGGVTKFAKASPEMDFRLRVKKAFDYAMNDAGLTLADIDGSVASYFSDHFQRQLMSGIMVQDYLGLVPKPSKRIEGGGATGGLAFQAGYEEIASGRMDTVAVYGFETMSHVNTWKGNEFIALASDTNFDYPIGGFYTGYYAMMAVRHMYEFGTTVEQLAKVSVKNHGNALHNPYAQSPMKLTVEDVRNAPMVSYPLTRLDVCAMSDGAAVAILASEDKAFEITDHPVLIKGIGTGTDSMRLADRPFGDVPLLPNEKPSDYKDLKYPGVHSFRAGRMAAKEAYEMAGITDPLNELDLIELHDAYTSSEIQTYEDLGLCKYGEGGQFIDEGKPELHGKIPVNPSGGLLAAGHPVGATGIMQAVFMFWQLQHTIKKHFHDDYLQVPNAKRGLIHSHAGTGTYVTVTIMEAAK | not soluble
16 | SNASYRSTQQITDFTKEILVNGEAVTAFDRQGDLPNVVVTPNFEAGVDQVVDQLAMNDSERDTTAIIGKSLAECEALTKALKARGEQVTLIQTENQRLAPGVIVVPSFLAKGLEFDAVIVWNANQENYQREDERQLLYTICSRAMHELTLVAVGSLSPLLARVNHALYTLNEAK | soluble
17 | SNAKVILYARVSSNTQKDDLANQVKYLEEQVKEYDLVITDIGSGLNMKRKGFLKLLRMILNNEVSRVITAYPDRLVRFGFEILEEVCKAHNCEIVVLNQEDKTPEEELVEDLATILVSFSGKLHGMRSQKYEKVKKCAEELKN | soluble
18 | MGSDKIHHHHHHMRIIILSSSTNRSGGTRQAFYQARELATRGHHVSLCLPEDSQMHGMGYDDLIVTLPADRKRWKASIEALFAADGPTVVHAFHNRAVKFVAWHGMFWRHRGVVCCAHRGVMYRPGNPLPYISPGMDAFIANSQACARVLRLFTPAGKLFVVYNGVDDARVTPRTPADTAREQVGLPPRGAEAAWSSSSPAPLVFGFVGQNSPVKGADILIDAFARADVGEARLLMVGVSHDMWRPRCEALGIADRVHLVPHTESVSDMLQLMDAFVLPSRTESLPNTMLEAIRMGLPVIGSAVGGVPELVRGNGLLFPAGDIDALAAALGRMASDHATREAWAAASHAEGERYTIHARVDALEDIYAQLLRRRGLHTA | not soluble
19 | MSAPTMRSTSILTEHLGYPPISLVDDIINAVNEIMYKCTAAMEKYLLSKSKIGEEDYGEEIKSGVAKLESLLENSVDKNFDKLELYVLRNVLRIPEEYLDANVFRLENQKDLVIVDENELKKSEEKLREKVNDVELAFKKNEMLLKRVTKVKRLLFTIRGFKQKLNELLKCKDDVQLQKILESLKPIDDTMTLLTDSLRKLYVDSESTSSTEEVEALLQRLKTNGKQNNKDFRTRYIDIRTNNVLRKLGLLGDKEDEKQSAKPDARTQAGDIVSIDIEEPQLDLLDDVL | soluble
20 | SLTRPNTDYSCGGFLSQPSGDFSSPFYPGNYPNNAKCVWDIEVQNNYRVTVIFRDVQMEGGCNYDYIEVFDGPYRSSPLIARVCDGARGSFTSSSNFMSIRFISDHSITRRGFRAEYYSSPSN | soluble
21 | MADLLDKIMGSSSSNRIPKRDNRMNQDKDEPTSKRSAPMFSTPKSTTPIGRDSFATMDTMNVQMNMFPVDIKDMPHKIQRFQVDVIVCSSNGKQINANLGVLAAKGDVNSHNRRLAQYYIMRTVHDKLLVKFSGKSHHFLAYDCAATLYLPEGVYTGDDQEEVTLTIDDFPKEEWKFVSKLSRRKDDSYLVVLKPAGFVYTQGEVAQEEANRMELTRIIEIVTSQKLNNEDYLQFGNATFPRLSPPHSEPDAISEIRSGFAKVSRLSQNGGGKAFMTVDTKISPFYKDTSVIKFSSNKLSEMKGGGGGRGGYGRSDSRDSRGGYRGGRSDSRDFRGVYGNRGGNDRYRDESRGRRDMYDSRRDSGSSNGADYSPSDAAELEHAFGERGNTKRCIEEALKGLDVECTHLKGNLIRVSSIAENNAENTSFMMKDDKGEREVTVAEYFLLQYNIKLKYPRLPLVVSKRFKHESFFPMELLRIAPGQRIKVNKMSPTVQSAMTGRNASMPQHHVKLVQDILRDNLKLEQNKYMDAFGIKLMSTEPIQMTAKLLPPAQIKFKGQTYMPDMSRPAFRTQDKFVEPARIRKIGIVVFDNCIQMRQAEDFCDKLSNFCRDNGITVEKDSRDWSIRELNSSDSVAIQNLMKKWLDDRVDILVGIAREKKPDVHDILKYFEESIGLQTIQLCQQTVDKMMGGQGGRQTIDNVMRKFNLKCGGTNFFVEIPNAVRGKAVCSNNETLRKKLLEHVQFIGFEISHGASRTLFDRSRSQMDGEPSVVGVSYSLTNSTQLGGFTYLQTQKEYKLQKLDEFFPKCVRSYKEHSKTLPTRIVIYRVGAGEGNFNRVKEEVEEMRRTFDKIQPGYRPHLVVIIAQRASHARVFPSCISGNRATDQNIPSGTCVENVLTSYGYDEFILSSQTPLIGTVRPCKYTILVNDAKWSKNELMHLTYFRAFGHQVSYQPPSVPDVLYAAENLAKRGRNNYKIHQRYVNLQAVENRIIKDHSELINEDMREELAAAIVDEMSVAMNGMTIPKRNFWA | not soluble
